Experimental data as given in the supplement of paper PMC10724198.
± gives the standard deviation of the averaged measurements.

What was measured:
Saccharomyces cerevisiae [1] = assay: protein stability index of tFT-peptide fusion (C-terminal peptide) (PSI (0-1 scale)); higher = more stable (slower turnover); settings: genetic background: wild type; temperature: 30 C
Saccharomyces cerevisiae [2] = assay: as above
Method: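 MPS profiling in S. cerevisiae of the tFT-X12 degron library: putative degron peptides plus stable controls, 12 aa, fused to the C-terminus of a sfGFP-mCherry timer. Cells are FACS-sorted into 8 mCherry/sfGFP bins and deep-sequenced. PSI runs from 0 (unstable) to 1 (stable). Backgrounds are wild type, das1Δ and doa10Δ at 30 °C, and wild type, das1Δ, cdc34-1 and cdc53-1 at 37 °C; 2-3 technical replicates each.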

[3] = genetic background: cdc34-1, temperature: 37 C
[4] = genetic background: cdc53-1, temperature: 37 C
[5] = genetic background: das1 deletion, temperature: 30 C
[6] = genetic background: das1 deletion, temperature: 37 C
[7] = genetic background: doa10 deletion, temperature: 30 C
[8] = genetic background: wild type, temperature: 30 C
[9] = genetic background: wild type, temperature: 37 C
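Further: PSI is a weighted mean of sequencing reads over stability bins, variants kept only with over 10 reads, mCherry proximal and sfGFP distal, peptide attached via GGGS linker.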

Sequence	protein stability index (Saccharomyces cerevisiae [1])	protein stability index (Saccharomyces cerevisiae [2]; [3])	protein stability index (Saccharomyces cerevisiae [2]; [4])	protein stability index (Saccharomyces cerevisiae [2]; [5])	protein stability index (Saccharomyces cerevisiae [2]; [6])	protein stability index (Saccharomyces cerevisiae [2]; [7])	protein stability index (Saccharomyces cerevisiae [2]; [8])	protein stability index (Saccharomyces cerevisiae [2]; [9])
GFFFWTMCFWVV	0.284 ± 0.046	0.255 ± 0.01	0.349 ± 0.022	0.303 ± 0.038	0.456 ± 0.011	0.204 ± 0.0089	0.194 ± 0.02	0.322 ± 0.026
LWVMVLFFPGCS	0.463 ± 0.043	0.3714 ± 0.0026	0.493 ± 0.0033	0.307 ± 0.042	0.552 ± 0.024	0.299 ± 0.0056	0.326 ± 0.025	0.5361 ± 0.0032
PVGRSVFFVWFL	0.458 ± 0.019	0.65 ± 0.071	0.7009 ± 0.0022	0.587 ± 0.019	0.744 ± 0.029	0.3522 ± 0.0035	0.367 ± 0.016	0.554 ± 0.013
FVFCTCSFFFLW	0.477 ± 0.0076	0.5113 ± 0.0046	0.532 ± 0.011	0.421 ± 0.026	0.54 ± 0.021	0.374 ± 0.004	0.393 ± 0.029	0.5103 ± 0.00052
PRSFFYIQFVFA	0.324 ± 0.0069	0.301 ± 0.016	0.369 ± 0.025	0.233 ± 0.016	0.431 ± 0.011	0.194 ± 0.011	0.224 ± 0.022	0.375 ± 0.014
FVSSLLPLLTLL	0.293 ± 0.033	0.555 ± 0.032	0.636 ± 0.013	0.608 ± 0.032	0.694 ± 0.014	0.142 ± 0.0036	0.141 ± 0.012	0.218 ± 0.0057
GFLVPSSPRCHQ	0.727 ± 0.0082	0.708 ± 0.018	0.72 ± 0.039	0.6427 ± 0.0046	0.72 ± 0.0086	0.654 ± 0.018	0.681 ± 0.047	0.691 ± 0.012
FSAVVCPTVFLC	0.185 ± 0.063	0.51 ± 0.051	0.725 ± 0.019	0.603 ± 0.015	0.746 ± 0.019	0.0928 ± 0.02	0.0973 ± 0.022	0.0951 ± 0.0051
SQCVVYLSVRFS	0.447 ± 0.024	0.358 ± 0.067	0.5 ± 0.017	0.34 ± 0.028	0.47856 ± 0.00019	0.326 ± 0.014	0.353 ± 0.011	0.4565 ± 0.0028
VGPLAPVCLLVL	0.459 ± 0.046	0.445 ± 0.025	0.4817 ± 0.0043	0.36 ± 0.038	0.516 ± 0.013	0.325 ± 0.012	0.359 ± 0.019	0.477 ± 0.0057
FGLVAYPLWYIS	0.18 ± 0.013	0.504 ± 0.04	0.765 ± 0.0058	0.668 ± 0.014	0.777 ± 0.0099	0.0782 ± 0.031	0.0991 ± 0.0037	0.105 ± 0.029
IKWRCLFCVCVL	0.422 ± 0.043	0.477 ± 0.011	0.466 ± 0.012	0.429 ± 0.026	0.489 ± 0.0054	0.371 ± 0.0045	0.375 ± 0.014	0.453 ± 0.008
IVIFQTAYVVRI	0.213 ± 0.0041	0.159 ± 0.0011	0.233 ± 0.013	0.164 ± 0.011	0.238 ± 0.012	0.225 ± 0.034	0.173 ± 0.0086	0.234 ± 0.01
LFFGFFLIYFLG	0.353 ± 0.044	0.428 ± 0.048	0.4839 ± 0.0013	0.384 ± 0.034	0.495 ± 0.0074	0.266 ± 0.014	0.278 ± 0.018	0.424 ± 0.032
APASFRVLISAF	0.136 ± 0.0083	0.021 ± 0.0017	0.0368 ± 0.0029	0.118 ± 0.035	0.102 ± 0.013	0.0642 ± 0.012	0.0969 ± 0.034	0.0646 ± 0.018
RGVPPPPWTPPP	0.539 ± 0.062	0.706 ± 0.041	0.7482 ± 0.0045	0.6792 ± 0.0067	0.731 ± 0.02	0.653 ± 0.012	0.661 ± 0.0081	0.716 ± 0.014
KERNKISQRKLT	0.434 ± 0.024	0.65 ± 0.009	0.654 ± 0.034	0.666 ± 0.015	0.714 ± 0.028	0.143 ± 0.023	0.185 ± 0.018	0.416 ± 0.013
AERPVLIIIEFG	0.417 ± 0.027	0.416 ± 0.039	0.532 ± 0.064	0.337 ± 0.031	0.5315 ± 0.0052	0.296 ± 0.015	0.339 ± 0.047	0.5248 ± 0.0013
NFTDMGRSLYIN	0.279 ± 0.057	0.592 ± 0.056	0.788 ± 0.018	0.663 ± 0.015	0.775 ± 0.0087	0.166 ± 0.0031	0.208 ± 0.054	0.434 ± 0.024
ATAVMILCFRWC	0.419 ± 0.053	0.392 ± 0.0051	0.492 ± 0.018	0.329 ± 0.041	0.526 ± 0.013	0.2872 ± 0.0016	0.308 ± 0.015	0.4711 ± 0.00051
